# Test results reported in US20200299738.
# T1: C. eutactus acyl carrier protein (T protein; gene ceuT)
# T1 chain: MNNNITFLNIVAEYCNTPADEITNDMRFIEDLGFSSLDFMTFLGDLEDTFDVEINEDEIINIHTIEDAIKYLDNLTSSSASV
# T2: E. rectale acyl carrier protein (T protein; gene ereT)
# T2 chain: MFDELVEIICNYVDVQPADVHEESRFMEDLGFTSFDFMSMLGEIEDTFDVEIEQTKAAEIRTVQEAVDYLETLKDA
# B1: C. eutactus condensation domain protein (fatty acyl-transferase, C protein; gene ceuC) (protein)
# chain: MPRKYYPLTPSQKIHFKPIIEFGTQQVANISICMTLQAPLDFGLLKKCIQLEYERYECLRIRFTKVDQNGEVRQYVVSRDDRDIDYENLSWLSGDDAYHRMEEWSRIPFDGDNIPMNVIKMISLPGGYNGLYIKIDHRLMDSCGAIVMVNDIMELYCHYKFGTPYPEDMASFTDMVERDLKKSTDEKRVSKDRMYWQNVLEENGEPIYSDIQGQRILQESRRLHNDKSLRAADQEINDLSVATKNYHLDAEPTQNLLDFCMNNHISMTNLILMGIRTYLSKANGGQTDISIRNYVSRRSTHAEWVSGGSRAMAYPCRTIIDPDTEFLDAVFMIQDVQNHVYRHCNYDPELLSDQMKEMFHTPPHTTYESVGLTYQPLPIRLKNPHLENISVRSMWIPNGTSKQKIYLTVMHSANDLGLNFYFRYQTASLSEQDIELFYYYLMKIIFKGIAEPEMTVGEIIECI
# B2: E. rectale fatty acyl-ACP synthetase (A protein; gene ereA) (protein)
# chain: MLFHTIPDILSYANEAYGADDAIRWKKSKNEIESRTYSELKNDTDSFANAIEKLGKKGQHIAVIGPSSYEWIVSYLAITESGSVAVPIDASLPAADICELLDRASVRMLIFDEARSDVAEAAAKSCHDINVYVSMNSTEHCPQVLSFKGLIDDNRGSYEPAVAEDALCTIMFTSGTTGKSKGVMLTQNNLAENATCLDMKIGPHTVILSVLPIHHAYCLSMDILKGISLGSVICINDSIMRMAKNIQLFTPDMILMVPLMIETFARKLEEVRAAGLPAEPVRKKMFGERLHTICSGGAYLNPDYVDLFAEFGITILQGYGMTECSPVISTNLSWDIRKNSVGKLMPNCEAKTVDGELFVRGTSVMQGYYKMPKETEETLSDGWLHTGDLGYVDEDGYIYLTGRRKNLIITKNGENVSPEELENALSVNHLIKEIIVRESEGVIEAEIFPDREYAQNTGIADIRSALQALIDEYNVNAPAYKRIYSIKVRESEFEKTASRKIKRS
# B3: E. rectale condensation domain protein (fatty acyl-transferase, C protein; gene ereC) (protein)
# chain: MKTRKGHNVYPITVAQKFHLYYAKYCPNMAVLNIGTSLTIGTELDWNVLRDSINYAYARNEAMRIRFTRDKDGECYQYIADVDEDFKERTVDFKDFTDVTMEEAENEMQGWTQVPFEFEDSPMTKIVMIKMPDGFNGVYFLGHHMVVDAQSLIAFLKDIIEIYCNAMYEGVPFPKDMCSYIEQLKKDLAYEAGSKAQLRDREFFEKLIRQSEPIYNGIDGTAKLDAARELMHDNKLRSAFNASDDVTSALDIFHLEAEPTKRLMDFCEKYHISLACLLLMGIRTFFQKENGFDDVSVNNAIARRATLKEKKSGGTRIHSFPFRTCFSKDVRFIDAVYTIRDKQNELFRHANYNPTEYFALRSKTYPQPKAGLTYEPMSLTYQPMTLKEKGLNDLGDIKYKTKWYPNGMTTQAMYLTVMHRPEDNGLDFSFEHQVKAVSRKQLEYMYYYLCKIMFKGAENPELTIGEIIKLV
# B4: C. eutactus fatty acyl-ACP synthetase (A protein; gene ceuA) (protein)
# chain: MEENILEIVEKSCRIHRDVIAVKYLSHREIVEKSYGDMWDDIRKTAVILRNNGLCGTHIALVGSSSYEWICAYMAILFTGNTAVPLDANLSVSELHELLNRSGSIALFCGASRKDVITELTDDCPEMNIVFTMEKKVDIEHLEGADSNPQLAILSFEQLRNEITIPDDFAFADQDKDKMCTLMYTSGTTGKSKGVMLSQFNLAQNVENVYVNLEPGVTILSVLPIHHAFCLTMEWMKGISLGATICINDSLLHMLKNMKRFQPVGMLMVPLMVETIYKKLKDVNPLLPKKLVAKEAFGGKLEYIFCGGAYLDPMYVTEFKKYGIDILQGYGMTECSPVICSNNHRYNRPGSVGKLLDNCAVRFVDEEIQVKGTSVMSGYYDMPNETAEAFQDGWLCTGDLGYLDSDGFMYITGRKKNLIILANGENISPEELEGKLSIEPLISEIVITGDGNHLTAHIYPDQDFVDKKHMDAARTSEKLQKIIDTFNKNQPTYKRISALDIRKEPFEKSSTKKIKRNLV
# How the values were obtained:
# [1] = target: T1, C. eutactus acyl carrier protein (T …)
# [2] = target: T2, E. rectale acyl carrier protein (T …)
protein,measurement,setting,value
B1,enzymatic production of hybrid FAA with the T and C protein pair from the same pathway and a swapped A protein,[1],"Swapping the A domain, while retaining the T and C protein pair from the same pathway, permitted the enzymatic production of hybrid FAA that incorporated the substrates from two different pathways"
same,condensation activity (enzyme-catalysed FAA product formation) after swapping the T protein between the C. eutactus and E. rectale pathways,[2],"While the C protein lost activity, the A protein retained activity after swapping the T protein"
B2,adenylation activity after swapping the T protein between the C. eutactus and E. rectale pathways,[1],"While the C protein lost activity, the A protein retained activity after swapping the T protein"
same,"LC-MS/MS detection of fatty acid thiotemplated T protein fragment after reaction with the A protein, Sfp and lauric acid",[2],This was further confirmed by the detection of fatty acid thiotemplated T protein fragment using LC-MS/MS (FIG. 22)
same,PPi level from ATP consumption (A and T proteins relative to negative control),[2],Up to 30-fold increase in PPi level relative to negative control was observed with fatty acid substrates
B3,condensation activity (enzyme-catalysed FAA product formation) after swapping the T protein between the C. eutactus and E. rectale pathways,[1],"While the C protein lost activity, the A protein retained activity after swapping the T protein"
same,enzymatic production of hybrid FAA with the T and C protein pair from the same pathway and a swapped A protein,[2],"Swapping the A domain, while retaining the T and C protein pair from the same pathway, permitted the enzymatic production of hybrid FAA that incorporated the substrates from two different pathways"
B4,adenylation activity after swapping the T protein between the C. eutactus and E. rectale pathways,[2],"While the C protein lost activity, the A protein retained activity after swapping the T protein"
